In the supplement of paper PMC7125110:
± gives the standard error. For part of these data: Variants at the floor of the assay were thinned out.

B1: glmS ribozyme (parent)
chain: AUAAAAGCGCCAGAACUACAGAAAUGUAGUUGACGAGGAGGAGGUUUAUCGAAUUUUCGGCGGAUGCCUCCAAA

Columns and labels:
Conditions in all cases: with glucosamine-6-phosphate
[1] = variants of: B1; experiment: kcat; higher = faster cleavage; RNA array
How it was run: (§1)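 A hybridised Cy3 probe tracked barcoded ribozyme variants, transcribed in situ by E. coli RNA polymerase on sequenced MiSeq chips, at 37 °C. The variants received 40 μM to 10 mM glucosamine-6-phosphate in HEPES/KCl/Mg(OAc)2 buffer. kobs came from decay fits and kcat and KM from weighted Michaelis–Menten fits.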

[2] = variants of: B1; experiment: KM; higher = weaker cofactor use; RNA array
How it was run: as §1

[3] = variants of: B1; experiment: self-cleavage kobs at 40 uM GlcN6P; higher = faster cleavage; RNA array
How it was run: as §1

[4] = variants of: B1; experiment: self-cleavage kobs at 160 uM GlcN6P; higher = faster cleavage; RNA array
How it was run: as §1

[5] = variants of: B1; experiment: self-cleavage kobs at 640 uM GlcN6P; higher = faster cleavage; RNA array
How it was run: as §1

[6] = variants of: B1; experiment: self-cleavage kobs at 2500 uM GlcN6P; higher = faster cleavage; RNA array
How it was run: as §1

[7] = variants of: B1; experiment: self-cleavage kobs at 10000 uM GlcN6P; higher = faster cleavage; RNA array
How it was run: as §1

Row | Variant | kcat [1] [s⁻¹] | KM [2] [µM] | self-cleavage kobs at 40 uM GlcN6P [3] [s⁻¹] | self-cleavage kobs at 160 uM GlcN6P [4] [s⁻¹] | self-cleavage kobs at 640 uM GlcN6P [5] [s⁻¹] | self-cleavage kobs at 2500 uM GlcN6P [6] [s⁻¹] | self-cleavage kobs at 10000 uM GlcN6P [7] [s⁻¹]
1 | G29A G32A | 0.00111 ± 7.1e-05 | 2000 ± 220 | 2.33e-05 ± 8.5e-06 | 8.75e-05 ± 1.7e-05 | 0.000239 ± 6.2e-05 | 0.000588 ± 0.00013 | 0.000945 ± 0.00013
2 | G29C U30G | 0.00361 ± 0.0014 | – | 8.92e-05 ± 1.8e-05 | 0.000309 ± 6.9e-05 | 0.00138 ± 0.00041 | 0.00147 ± 0.00036 | 0.00472 ± 0.00086
3 | G29A C67G | 0.00016 ± 1.6e-05 | 1710 ± 390 | – | – | 4.67e-05 ± 1e-05 | 8.59e-05 ± 1.7e-05 | 0.000145 ± 2.5e-05
4 | C19A | 0.0165 ± 0.0045 | 610 ± 220 | 0.00101 ± 8.1e-05 | 0.00456 ± 0.00078 | 0.00758 ± 0.00099 | 0.011 ± 0.0021 | 0.0275 ± 0.0046
5 | C19A C67G | 0.000349 ± 4.1e-05 | 295 ± 93 | – | 0.000171 ± 4.8e-05 | 0.000207 ± 7.2e-05 | 0.000309 ± 7.1e-05 | 0.000347 ± 7.3e-05
6 | C16G G40C | 0.0003 ± 2.6e-05 | 1660 ± 360 | – | – | 8.17e-05 ± 2e-05 | 0.000212 ± 5.8e-05 | 0.000252 ± 3.6e-05
7 | C16G G32U | 0.000915 ± 8.9e-05 | 3800 ± 700 | – | – | 0.000144 ± 3.7e-05 | 0.00032 ± 8.7e-05 | 0.00068 ± 0.00011
8 | C16G G32A | 0.0013 ± 0.00037 | 2870 ± 1300 | – | 7.04e-05 ± 1.7e-05 | 0.0003 ± 5.5e-05 | 0.000434 ± 0.00011 | 0.00115 ± 0.00018
9 | G29A C70A | 3.87e-05 ± 5e-06 | – | – | – | 4.17e-05 ± 1.5e-05 | 4.02e-05 ± 1.1e-05 | 2.96e-05 ± 1.4e-05
10 | G29A C68A | 1.61e-05 ± 4.9e-06 | – | < 1e-05 | – | – | – | –
11 | C16A U65C | 2.42e-05 ± 3.7e-08 | 654 ± 8.5 | – | – | – | – | –
12 | A15U U65A | 0.000377 ± 6.3e-05 | 1080 ± 410 | – | 6.26e-05 ± 2.2e-05 | 0.000146 ± 2.3e-05 | 0.00021 ± 4.1e-05 | 0.00039 ± 5.6e-05
13 | G29A A39U A42U | 0.000919 ± 0.00015 | 3000 ± 790 | – | 4.77e-05 ± 2e-05 | 0.000148 ± 3.3e-05 | 0.000488 ± 0.00012 | 0.000685 ± 0.00014
14 | C16U C61G C67A | 2.72e-05 ± 6.4e-06 | – | – | – | – | – | –
15 | G29C U65G | 0.00083 ± 0.00013 | 4400 ± 1000 | – | – | 0.000115 ± 2.7e-05 | 0.000279 ± 7.3e-05 | 0.000591 ± 0.00015
16 | C16U G37U G51C | < 1e-05 | – | < 1e-05 | < 1e-05 | < 1e-05 | – | –
17 | C16A U55G | 0.00294 ± 0.001 | – | 4.26e-05 ± 1.2e-05 | 0.000166 ± 3.8e-05 | 0.000304 ± 5.7e-05 | 0.00101 ± 0.00012 | 0.00216 ± 0.00033

Row | Variant | kcat [1] [s⁻¹] | KM [2] [µM] | self-cleavage kobs at 40 uM GlcN6P [3] [s⁻¹] | self-cleavage kobs at 160 uM GlcN6P [4] [s⁻¹] | self-cleavage kobs at 640 uM GlcN6P [5] [s⁻¹] | self-cleavage kobs at 2500 uM GlcN6P [6] [s⁻¹] | self-cleavage kobs at 10000 uM GlcN6P [7] [s⁻¹]
18 | G29A G59U | 1.01e-05 ± 3.5e-06 | – | – | – | < 1e-05 | – | –
19 | G29C C70A | 4.11e-05 ± 9.8e-06 | – | – | 2.35e-05 ± 1.1e-05 | 5.19e-05 ± 9.6e-06 | 4.33e-05 ± 9.8e-06 | –
20 | C16G G41U | 0.000139 ± 1.4e-05 | 2720 ± 780 | – | – | – | 7.39e-05 ± 1.7e-05 | 0.000107 ± 1.5e-05
21 | G29C U49G | 1.82e-05 ± 5.3e-06 | – | < 1e-05 | – | – | – | –
22 | C16G U45G | 0.000908 ± 7.3e-05 | 2510 ± 380 | – | 4.29e-05 ± 1.9e-05 | 0.000199 ± 3.8e-05 | 0.000466 ± 0.00011 | 0.000718 ± 9.7e-05
23 | G21U | 0.0659 ± 0.016 | 2090 ± 600 | 0.00136 ± 8.6e-05 | 0.00351 ± 0.00055 | 0.0147 ± 0.0015 | 0.0337 ± 0.0063 | 0.059 ± 0.0083
24 | G29A C67U C71G | 4.81e-05 ± 2.2e-05 | – | – | – | 9.19e-05 ± 4.3e-05 | – | –
25 | C16A G40A | 0.000202 ± 6.3e-05 | – | – | – | – | 0.000155 ± 2.1e-05 | 0.000154 ± 2.9e-05
26 | C16A G63C | < 1e-05 | – | – | < 1e-05 | – | – | –
27 | G29C C67G | 8e-05 ± 4.8e-06 | 1430 ± 280 | – | – | – | 4.84e-05 ± 1.1e-05 | 7.18e-05 ± 1.4e-05
28 | C16A A53C | 0.000269 ± 1.8e-05 | 1770 ± 270 | – | 3.05e-05 ± 1.2e-05 | 6.66e-05 ± 1.2e-05 | 0.000164 ± 2.3e-05 | 0.000226 ± 2.5e-05
29 | C16U A53G | 0.0256 ± 0.012 | – | 0.00111 ± 0.00015 | 0.00153 ± 0.00061 | 0.0112 ± 0.0028 | 0.013 ± 0.0042 | 0.0282 ± 0.0061
30 | C16G A39G | 0.0108 ± 0.0041 | – | 0.000228 ± 4.9e-05 | 0.000353 ± 0.00011 | 0.00194 ± 0.00038 | 0.00841 ± 0.0019 | 0.00779 ± 0.0013
31 | G29A G37U | < 1e-05 | – | – | – | – | – | –
32 | G29A U46G | 0.00124 ± 0.00055 | – | – | 5.62e-05 ± 1.3e-05 | 0.000243 ± 4.1e-05 | 0.000425 ± 7.7e-05 | 0.00128 ± 0.00027
33 | C16U C70A | 0.000203 ± 1.9e-05 | 296 ± 79 | – | 7.15e-05 ± 9.6e-06 | 0.000148 ± 2.1e-05 | 0.000204 ± 2.2e-05 | 0.000177 ± 2e-05
34 | C16U A36U | < 1e-05 | – | – | – | – | – | –
